The values that follow come from patent US20230272055A1 (Incyte, published 2023).

Experiment [1] addresses T1, human Type 1 mutCALR (52 bp deletion) (human).
T1 construct: also called human mutCALR Type 1; mutant CALR
T1 chain: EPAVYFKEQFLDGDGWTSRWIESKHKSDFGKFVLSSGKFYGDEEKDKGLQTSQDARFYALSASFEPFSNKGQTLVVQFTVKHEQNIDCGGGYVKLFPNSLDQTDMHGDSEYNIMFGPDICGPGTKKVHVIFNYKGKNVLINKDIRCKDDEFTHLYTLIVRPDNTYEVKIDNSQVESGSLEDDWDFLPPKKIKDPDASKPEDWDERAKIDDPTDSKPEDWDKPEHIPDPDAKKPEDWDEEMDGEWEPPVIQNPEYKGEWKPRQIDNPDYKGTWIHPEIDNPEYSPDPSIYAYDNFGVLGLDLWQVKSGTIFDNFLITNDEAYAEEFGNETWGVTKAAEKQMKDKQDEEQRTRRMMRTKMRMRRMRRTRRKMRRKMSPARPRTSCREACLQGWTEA
The experiment is described as follows: flow cytometry on BaF3 cells stably expressing human MPL and human mutCALR Type 1, goat anti-human R-PE secondary, GMFI. The protocol: Approximately 200,000 cells/well were added to 96-well plates and stained with the indicated concentration of antibodies for 30 minutes on ice. Cells were then washed and stained with goat anti-human secondary conjugated to R-phycoerythrin (R-PE) (Jackson Immuno Research Laboratories) for 30 minutes on ice. The cells were then washed again and analyzed by flow cytometry.
(In general: A flow cytometer gives signals particle by particle.)

The target of experiment [2] is T2, Recombinant MBP-mutCALR Type 1 fusion protein (human).
T2 construct: custom made at Cepter; also called recombinant mutCALR protein
The experiment is described as follows: SPR, IgG captured, 1:1 fit, Exp. 2. A digest of the protocol:
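Antibodies captured via amine-coupled anti-human IgG (Fc) on a CM4 chip; recombinant MBP-mutCALR Type 1 fusion protein as analyte. Run at 25 °C in Tris-buffered saline pH 7.2, 0.005% P20, 1 mM CaCl₂. Multiple-cycle kinetics fitted to a 1:1 binding model.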
(In SPR one partner is held on a chip, and binding of the other changes the refractive index at the surface.)

In experiment [3] the target is T3, Recombinant MBP-mutCALR Type 2 fusion protein (human).
T3 construct: custom made at Cepter
The experiment is described as follows: SPR, IgG captured, 1:1 fit, Exp. 3. The method, then:
Experiment 2: Recombinant MBP-mutCALR Type 1 fusion protein was custom made at Cepter (cepterbiopartners.com). Data for the interaction of antibodies with recombinant mutCALR protein were collected at 25° C. on a Biacore 8K instrument (Cytiva, Marlborough, Mass.), and all reagents were obtained from Cytiva unless otherwise specified. The experiments were conducted using Tris-buffered saline (pH 7.2), 0.005% Surfactant P20, 1 mM CaCl₂) as running buffer. To prepare the capture surfaces, anti-human IgG (Fc) antibodies (Product #29234600) was amine-coupled onto a CM4 chip (Product #BR100534) under standard conditions using an Amine Coupling Kit (Product #BR100050). […] The kinetics parameters were obtained by applying 1:1 binding model to fit the data from multiple-cycle injection experiments using Biacore Insight Evaluation software.
Recombinant MBP-mutCALR Type 2 fusion protein was custom made at Cepter (cepterbiopartners.com). Data for the interaction of antibodies with recombinant MBP-mutCALR Type 2 fusion protein were collected as described in Experiment 2. The chip used was a Biacore Series S Sensor Chip CM4 with anti-huFc immobilized onto the chip surface.

In experiment [4] the target is T4, Human Type 1 mutCALR (human).
T4 chain: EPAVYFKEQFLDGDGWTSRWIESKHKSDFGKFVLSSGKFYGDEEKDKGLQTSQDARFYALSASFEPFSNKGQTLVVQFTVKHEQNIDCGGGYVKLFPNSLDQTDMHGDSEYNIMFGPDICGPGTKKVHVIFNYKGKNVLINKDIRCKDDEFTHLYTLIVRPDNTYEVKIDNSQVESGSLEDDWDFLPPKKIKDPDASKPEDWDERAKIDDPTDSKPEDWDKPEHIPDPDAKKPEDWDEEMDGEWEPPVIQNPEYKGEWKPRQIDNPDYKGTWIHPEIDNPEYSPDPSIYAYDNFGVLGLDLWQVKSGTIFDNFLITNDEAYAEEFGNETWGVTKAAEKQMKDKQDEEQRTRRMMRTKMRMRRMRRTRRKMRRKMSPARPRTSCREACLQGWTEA
The experiment is described as follows: cell-based or functional assay.

For experiment [5], the target named is T4, Human Type 1 mutCALR. The experiment is described as follows: cell-based or functional assay.
In experiment [6] the target is T4, Human Type 1 mutCALR. The experiment is described as follows: cell-based or functional assay.

B1: AB3: anti-mutCALR antibody including the BJ095 VH region and the BJ097 VL region from WO2019178362 fused to human constant regions (antibody, human IgG1, kappa, V domains shown)
VH: QVQLVQSGAEVKKPGASVKVSCKASGYSFTGYYIHWVRQAPGQGLEWIGYISAYNGASSYNQKFKGRATFTVDTSISTAYMELSRLRSDDTAVYYCASSMDYWGQGTLVTVSS
VL: DVVMTQSPLSLPVTLGQPASISCKSSQSLLDSDGKTYLNWLQQRPGQSPKRLIYLVSKLDSGVPDRFSGSGSGTDFTLKISRVEAEDVGVYHCWQGTHFPYTFGQGTKLIEKR
On to B1, for which the binding result in experiment [1] is recorded as “binds”.

B2: anti-mutCALR antibody clone 65 (antibody, human IgG1, lambda, N297A, V domains shown)
VH: EVQLVQSGAEVKKPGASVKVSCKVSGYTLTELSMQWVRQAPGKGLEWMGGFDPDDGETMYAEKFQGRLTVTEDTSTDTVYMELRSLTSEDTALYFCATSPGYDFFDYWGQGTLVTVSS
VL: SYVLTQPPSVSVAPGKTARITCTGTSSDVGGYNYVSWYQQKPGQAPVLVVYEVSNRPSGIPERFSGSNSGNTATLTISRVEAGDEADYYCQVWDSSNDLLIFGGGTKLTVLG
notes: human IgG1 N297A variant of clone 6
The term Kd denotes the equilibrium constant for the complex coming apart. As usually defined, the koff is a measure of how fast the partners let go of each other. As usually defined, the kon is a measure of how fast the partners come together. In the case of B2, in experiment [2], the Kd came to 0.502 nM, the koff is 0.00231 s⁻¹ and the kon was determined as 4.6e+06 M⁻¹ s⁻¹. Moreover, in experiment [3], the Kd is 6.35 nM, the koff amounted to 0.00424 s⁻¹ and the kon worked out at 668000 M⁻¹ s⁻¹.

B3: anti-mutCALR antibody clone 74 (antibody, human IgG1, lambda, N297A, V domains shown)
VH: EVQLVQSGAEVKKPGASVKVSCKVSGYTLTELSMQWVRQAPGKGLEWMGGFDPDDAETMYAEKFQGRLTVTEDTSTDTVYMELSSLRSEDTAVYFCATSPGYDFFDYWGQGTLVTVSS
VL: SYVLTQPPSVSVAPGKTARITCTGTSSDVGGYNYVSWYQQKPGQAPVLVVYEVSNRPSGIPERFSGSNSGNTATLTISRVEAGDEADYYCQVWDSSNDLLIFGGGTKLTVLG
notes: as for B2
On to B3, for which, in experiment [2], the Kd was determined as 1.19 nM, the koff amounted to 0.00153 s⁻¹ and the kon worked out at 1.29e+06 M⁻¹ s⁻¹. Further, in experiment [3], the Kd amounted to 6.78 nM, the koff amounted to 0.00579 s⁻¹ and the kon was found to be 854000 M⁻¹ s⁻¹.

B4: anti-mutCALR antibody clone 52 (antibody, human IgG1, kappa, V domains shown)
VH: EVQLVQSGAEVKKPGASVKVSCKVSGYTLTELSMHWVRQAPGKGLEWMGLVDPEDGETIYAEKFQGRVTITADTSTDTAYMELSSPRSEDTAVYYCATTIGDDYFDYWGQGTLVTVSS
VL: not shown
As for B4, in the experiment with Human Type 1 mutCALR [4], the “Log IC50 of inhibition of cell proliferation, antibody + ruxolitinib (Ba/F3-TPOR/mutCALR type 1 cells)” value was -0.709 Log IC50 (µg/mL). Further, in the experiment with Human Type 1 mutCALR [5], the “IC50 of inhibition of cell proliferation (Ba/F3 cells with MPL and mutCALR Type 1)” value came out at 0.0337 µg/mL.

B5: anti-mutCALR antibody clone 162 (antibody, human IgG1, lambda, N297A)
heavy: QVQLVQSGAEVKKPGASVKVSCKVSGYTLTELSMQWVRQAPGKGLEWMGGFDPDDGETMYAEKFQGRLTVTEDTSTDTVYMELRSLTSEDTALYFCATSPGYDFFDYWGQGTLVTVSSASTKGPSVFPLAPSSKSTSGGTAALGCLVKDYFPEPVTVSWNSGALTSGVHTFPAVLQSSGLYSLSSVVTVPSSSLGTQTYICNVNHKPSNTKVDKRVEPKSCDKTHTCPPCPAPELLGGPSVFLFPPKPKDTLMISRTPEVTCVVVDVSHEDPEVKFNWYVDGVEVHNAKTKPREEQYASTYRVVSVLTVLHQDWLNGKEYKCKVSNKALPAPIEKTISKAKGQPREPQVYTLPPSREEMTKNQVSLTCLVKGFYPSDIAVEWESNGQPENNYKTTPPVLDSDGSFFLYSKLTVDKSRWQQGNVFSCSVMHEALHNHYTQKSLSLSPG
light: SYVLTQPPSVSVAPGKTARITCGGDNIGSKSVHWYQQKPGQAPVLVVYDDSDRPSGIPERFSGSNSGNTATLTISRVEAGDEADYYCQVWDSSNDLLIFGGGTKLTVLGQPKAAPSVTLFPPSSEELQANKATLVCLISDFYPGAVTVAWKADSSPVKAGVETTTPSKQSNNKYAASSYLSLTPEQWKSHRSYSCQVTHEGSTVEKTVAPTECS
notes: human IgG1 N297A variant of clone 15
Regarding B5, in experiment [3], the dissociation constant (Kd) was found to be 11.2 nM, the koff was determined as 0.00682 s⁻¹ and the kon was determined as 607000 M⁻¹ s⁻¹.

B6: anti-mutCALR antibody clone 53 (antibody, human IgG1, lambda, V domains shown)
VH: QVQLVQSGAEVKKPGASVKVSCKVSGYTLTELSMHWVRQAPGKGLEWMGGFDPEDGETIYAQKFQGRVTMTEDTSTDTAYMELSSLRSEDTAVYYCATDIQGLAEFDYWGQGTLVTVSS
VL: QSALTQPRSVSGSPGQSVTISCTGTNTDVGAYIDVSWYQQHPGKAPKLIIYDVSKWPSGVPDRFSGSKSGNTASLTISGLQAEDEADYYCCSYAGNHSFSFGGGTKVTVLG
Regarding B6, in the experiment with Human Type 1 mutCALR [4], the “Log IC50 of inhibition of cell proliferation, antibody + ruxolitinib (Ba/F3-TPOR/mutCALR type 1 cells)” value was -0.424 Log IC50 (µg/mL) and the “Log IC50 of inhibition of cell proliferation, antibody alone (Ba/F3-TPOR/mutCALR type 1 cells)” value is -0.173 Log IC50 (µg/mL). The “IC50 of inhibition of cell proliferation (Ba/F3 cells with MPL and mutCALR Type 1)” value with Human Type 1 mutCALR [5] stood at 0.399 µg/mL. For the same molecule, the “IC50 of inhibition of cell proliferation (BaF3 cells expressing MPL/mutCALR Type 1)” value in the experiment with Human Type 1 mutCALR [6] came to 9.5 µg/mL.
